The labels stand for the following.
B1: SNAP-mGluR1-TMD (domain or fragment, rat, UniProt P23385 583-1199, looked up)
chain: VRYLEWSDIESIIAIAFSCLGILVTLFVTLIFVLYRDTPVVKSSSRELCYIILAGIFLGYVCPFTLIAKPTTTSCYLQRLLVGLSSAMCYSALVTKTNRIARILAGSKKKICTRKPRFMSAWAQVIIASILISVQLTLVVTLIIMEPPMPILSYPSIKEVYLICNTSNLGVVAPVGYNGLLIMSCTYYAFKTRNVPANFNEAKYIAFTMYTTCIIWLAFVPIYFGSNYKIITTCFAVSLSVTVALGCMFTPKMYIIIAKPERNVRSAFTTSDVVRMHVGDGKLPCRSNTFLNIFRRKKPGAGNANSNGKSVSWSEPGGRQAPKGQHVWQRLSVHVKTNETACNQTAVIKPLTKSYQGSGKSLTFSDASTKTLYNVEEEDNTPSAHFSPPSSPSMVVHRRGPPVATTPPLPPHLTAEETPLFLADSVIPKGLPPPLPQQQPQQPPPQQPPQQPKSLMDQLQGVVTNFGSGIPDFHAVLAGPGTPGNSLRSLYPPPPPPQHLQMLPLHLSTFQEESISPPGEDIDDDSERFKLLQEFVYEREGNTEEDELEEEEDLPTASKLTPEDSPALTPPSPFRDSVASGSSVPSSPVSESVLCTPPNVTYASVILRDYKQSSSTL
modifications: SNAP tag labelled with BG-LD555
notes: LBD and CRD deleted; following the SNAP tag the receptor starts at V583; Made by modifying the full-length SNAP-tagged cDNA of Doumazane et al., 2011; source: HEK 293T, transfected, surface-labelled, in detergent lysate; not shown: HA, N-terminal, kept; SNAP, N-terminal, kept
B2: SNAP-tagged full-length mGluR2 (HA-SNAP-mGluR2) (receptor, rat, UniProt P31421 19-872, looked up)
chain: EGPAKKVLTLEGDLVLGGLFPVHQKGGPAEECGPVNEHRGIQRLEAMLFALDRINRDPHLLPGVRLGAHILDSCSKDTHALEQALDFVRASLSRGADGSRHICPDGSYATHSDAPTAVTGVIGGSYSDVSIQVANLLRLFQIPQISYASTSAKLSDKSRYDYFARTVPPDFFQAKAMAEILRFFNWTYVSTVASEGDYGETGIEAFELEARARNICVATSEKVGRAMSRAAFEGVVRALLQKPSARVAVLFTRSEDARELLAATQRLNASFTWVASDGWGALESVVAGSERAAEGAITIELASYPISDFASYFQSLDPWNNSRNPWFREFWEERFHCSFRQRDCAAHSLRAVPFEQESKIMFVVNAVYAMAHALHNMHRALCPNTTHLCDAMRPVNGRRLYKDFVLNVKFDAPFRPADTDDEVRFDRFGDGIGRYNIFTYLRAGSGRYRYQKVGYWAEGLTLDTSFIPWASPSAGPLPASRCSEPCLQNEVKSVQPGEVCCWLCIPCQPYEYRLDEFTCADCGLGYWPNASLTGCFELPQEYIRWGDAWAVGPVTIACLGALATLFVLGVFVRHNATPVVKASGRELCYILLGGVFLCYCMTFVFIAKPSTAVCTLRRLGLGTAFSVCYSALLTKTNRIARIFGGAREGAQRPRFISPASQVAICLALISGQLLIVAAWLVVEAPGTGKETAPERREVVTLRCNHRDASMLGSLAYNVLLIALCTLYAFKTRKCPENFNEAKFIGFTMYTTCIIWLAFLPIFYVTSSDYRVQTTTMCVSVSLSGSVVLGCLFAPKLHIILFQPQKNVVSHRAPTSRFGSAAPRASANLGQGSGSQFVPTVCNGREVVDSTTSSL
modifications: SNAP tag labelled with BG-LD555 (SiMPull); SNAP tag labelled with donor and acceptor fluorophores (inter-LBD FRET)
notes: metabotropic glutamate receptor 2 (mGluR2), rat, full-length, behind N-terminal HA and SNAP tags; construct of Doumazane et al., 2011; also called mGluR2-WT; WT-SNAP-mGluR2; source: HEK 293T, transfected; surface-labelled, in detergent lysate (SiMPull); on living cells (FRET); not shown: HA, N-terminal, kept; SNAP, N-terminal, kept
B3: SNAP-mGluR3-TMD (domain or fragment, rat, UniProt P31422 567-879, looked up)
chain: EDYIKWEDAWAIGPVTIACLGFLCTCIVITVFIKHNNTPLVKASGRELCYILLFGVSLSYCMTFFFIAKPSPVICALRRLGLGTSFAICYSALLTKTNCIARIFDGVKNGAQRPKFISPSSQVFICLGLILVQIVMVSVWLILETPGTRRYTLPEKRETVILKCNVKDSSMLISLTYDVVLVILCTVYAFKTRKCPENFNEAKFIGFTMYTTCIIWLAFLPIFYVTSSDYRVQTTTMCISVSLSGFVVLGCLFAPKVHIVLFQPQKNVVTHRLHLNRFSVSGTATTYSQSSASTYVPTVCNGREVLDSTTSSL
modifications: SNAP tag labelled with BG-LD555
notes: mGluR3, rat; LBD and CRD deleted; following the SNAP tag the receptor starts at E567; Made by modifying the full-length SNAP-tagged cDNA of Doumazane et al., 2011; source: HEK 293T, transfected, surface-labelled, in detergent lysate; not shown: HA, N-terminal, kept; SNAP, N-terminal, kept
B4: SNAP-mGluR5-TMD (domain or fragment, human, UniProt P41594 570-1212, looked up)
chain: VQYLRWGDPEPIAAVVFACLGLLATLFVTVVFIIYRDTPVVKSSSRELCYIILAGICLGYLCTFCLIAKPKQIYCYLQRIGIGLSPAMSYSALVTKTNRIARILAGSKKKICTKKPRFMSACAQLVIAFILICIQLGIIVALFIMEPPDIMHDYPSIREVYLICNTTNLGVVTPLGYNGLLILSCTFYAFKTRNVPANFNEAKYIAFTMYTTCIIWLAFVPIYFGSNYKIITMCFSVSLSATVALGCMFVPKVYIILAKPERNVRSAFTTSTVVRMHVGDGKSSSAASRSSSLVNLWKRRGSSGETLRYKDRRLAQHKSEIECFTPKGSMGNGGRATMSSSNGKSVTWAQNEKSSRGQHLWQRLSIHINKKENPNQTAVIKPFPKSTESRGLGAGAGAGGSAGGVGATGGAGCAGAGPGGPESPDAGPKALYDVAEAEEHFPAPARPRSPSPISTLSHRAGSASRTDDDVPSLHSEPVARSSSSQGSLMEQISSVVTRFTANISELNSMMLSTAAPSPGVGAPLCSSYLIPKEIQLPTTMTTFAEIQPLPAIEVTGGAQPAAGAQAAGDAARESPAAGPEAAAAKPDLEELVALTPPSPFRDSVDSGSTTPNSPVSESALCIPSSPKYDTLIIRDYTQSSSSL
modifications: SNAP tag labelled with BG-LD555 (SiMPull); with donor and acceptor fluorophores (FRET)
notes: mGluR5, human; LBD and CRD deleted; following the SNAP tag the receptor starts at V570; Made by modifying the full-length SNAP-tagged cDNA of Doumazane et al., 2011; source: HEK 293T, transfected; surface-labelled, in detergent lysate (SiMPull); on living cells (FRET); not shown: HA, N-terminal, kept; SNAP, N-terminal, kept
B5: SNAP-mGluR2-TMD (HA-SNAP-tagged isolated transmembrane domain of mGluR2) (domain or fragment, rat, UniProt P31421 558-872, looked up)
chain: QEYIRWGDAWAVGPVTIACLGALATLFVLGVFVRHNATPVVKASGRELCYILLGGVFLCYCMTFVFIAKPSTAVCTLRRLGLGTAFSVCYSALLTKTNRIARIFGGAREGAQRPRFISPASQVAICLALISGQLLIVAAWLVVEAPGTGKETAPERREVVTLRCNHRDASMLGSLAYNVLLIALCTLYAFKTRKCPENFNEAKFIGFTMYTTCIIWLAFLPIFYVTSSDYRVQTTTMCVSVSLSGSVVLGCLFAPKLHIILFQPQKNVVSHRAPTSRFGSAAPRASANLGQGSGSQFVPTVCNGREVVDSTTSSL
modifications: SNAP tag labelled with BG-LD555 (SiMPull); with BG-LD655 as acceptor or with a mixture of BG-LD555 and BG-LD655 (FRET)
notes: mGluR2, rat; LBD and CRD deleted; following the SNAP tag the receptor starts at Q558; Made by modifying the full-length SNAP-tagged cDNA of Doumazane et al., 2011; also called HA-SNAP-mGluR2-TMD; isolated mGluR2 TMD; source: HEK 293T, transfected; surface-labelled, in detergent lysate (SiMPull); on living cells (FRET); not shown: HA, N-terminal, kept; SNAP, N-terminal, kept

The data set concerns the molecule itself. Description: single-molecule pulldown (SiMPull) with subunit counting by photobleaching steps; surface receptors labelled with BG-LD555 on HEK 293T cells, lysed in 1.2% IGEPAL, diluted in 0.1% IGEPAL, immobilised by biotinylated anti-HA antibody on a PEG-passivated coverslip, TIRF imaging; SNAP labelling efficiency ~80%; background two-step bleaching ~5-10%.
For B1, the “percent of spots bleaching in two steps” value was ~30% and the “stoichiometry N” value amounted to 2.
The like results for B2 were, in that order, ~60% and 2.
The like results for B3 were, in that order, ~30% and 2.
The like results for B4 were, in that order, ~30% and 2.
As for B5, the “percent of spots bleaching in two steps” value was ~45% and the “stoichiometry N” value came out at 2.

Values taken from PMC6588349, “Conformational dynamics between transmembrane domains and allosteric modulation of a metabotropic glutamate receptor” (eLife, 2019).
